{"source": "IntAct's records for PubMed 21946560", "parents": {"B1": {"name": "DNA replication regulator DPB11 (Saccharomyces cerevisiae), P47027 (parent)", "chain": "MKPFQGITFCPTAINNEILAKKISKKIIKLGGIFSKDLTRQVNVLVVGSTTNTNKFKFAVKHRFDIIFIDIQAIDDIYQLWLSGENILPDSNTATMTGSTYEMLKILYRRFSFKYLHNFNIFIGRITDTNITSIDSLVRSIKKLGCSSYNYQNFVIKDTSSHNDDDDQGQNGQISIFVTDTLLGARVNAAIEQNIPIVHFKWILDCQKRSALLPYDPYYLLPNIKDLPYDSIGSNSCDCWDKINTTFPTNIDAQSSLQRQQSSSTLTPSLPKTSSLLNKFKPKGEKIWDKAMSLQQHSKTNFSVLGQSPLSINNKQEDLSDNSTLIFKNCAFIIHHIFPGNHRSILTKIVVQNGGKIETSYLSGIYDHSYYIIPSNKALDSFNDLPEIIDDNDGIVTEFFIERCLYYQKLLHPIDLWSKPFLSTIEFQVSSSSKLLHHEFSSSPFLNVTITGFSGVELLHLTKVLNLLKPMGINYVEYLNKSTDILLINLAALPSIPKTHPLWSNEFSDLFTQFCINNNNDDPGDNNRKDFQNNSILRNSMKRKIEYIKKFHSIPVVTPAFIFKLLSAASGENNEIFLNNIKWCIICPRGHKDDFKCKIKKPYYTSISSEKKYQNNDPKIDKTILLKRNNSSLSEHSMKDTKNELLQKIRETDSGRKKRSVSSSIMDVSSERQMPDTKRIKLESLPKNFVPKQIKRTTSWGTIMSENVPTEQPTAISNPEEIPRTEEVSHTQVTYGSIQDKKRTASLEKPMRRQTRNQTKELDS", "partner": "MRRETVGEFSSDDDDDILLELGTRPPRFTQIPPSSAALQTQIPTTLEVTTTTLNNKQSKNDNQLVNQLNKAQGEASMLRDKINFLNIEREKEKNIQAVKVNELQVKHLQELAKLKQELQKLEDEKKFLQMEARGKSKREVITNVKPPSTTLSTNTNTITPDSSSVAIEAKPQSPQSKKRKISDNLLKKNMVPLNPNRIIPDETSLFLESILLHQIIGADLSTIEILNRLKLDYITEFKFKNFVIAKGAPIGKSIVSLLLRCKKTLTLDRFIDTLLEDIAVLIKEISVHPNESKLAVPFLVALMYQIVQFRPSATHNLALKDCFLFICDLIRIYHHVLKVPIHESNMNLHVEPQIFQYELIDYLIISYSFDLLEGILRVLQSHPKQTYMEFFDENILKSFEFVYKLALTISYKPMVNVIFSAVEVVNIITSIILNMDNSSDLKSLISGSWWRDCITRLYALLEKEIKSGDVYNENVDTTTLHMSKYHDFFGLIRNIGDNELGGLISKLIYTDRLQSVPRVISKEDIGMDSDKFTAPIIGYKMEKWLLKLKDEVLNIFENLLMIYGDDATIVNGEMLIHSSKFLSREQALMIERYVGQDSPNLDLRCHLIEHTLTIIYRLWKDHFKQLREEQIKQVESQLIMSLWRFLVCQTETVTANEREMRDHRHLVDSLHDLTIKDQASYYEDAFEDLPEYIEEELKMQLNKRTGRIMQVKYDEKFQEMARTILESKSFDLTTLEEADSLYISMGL"}, "B2": {"name": "DNA repair protein RAD9 (Saccharomyces cerevisiae), P14737 (parent)", "chain": "MSGQLVQWKSSPDRVTQSAIKEALHSPLADGDMNEMNVPVDPLENKVNSTNIIEGSPKANPNPVKFMNTSEIFQKSLGLLDESPRHDDELNIEVGDNDRPNANILHNERTPDLDRIANFFKSNRTPGKENLLTKYQSSDLEDTPLMLRKKMTFQTPTDPLEQKTFKKLKSDTGFCYYGEQNDGEENASLEVTEADATFVQMAERSADNYDCALEGIVTPKRYKDELSKSGGMQDERVQKTQIMISAESPNSISSYDKNKITGNGRTTRNVNKVFNNNEDNIGAIEEKNPVKKKSENYSSDDLRERNNQIIQSNESEEINELEKNLNVSGRENDVNNLDIDINSAVSGTPSRNNAEEEMYSSESVNNREPSKKWIFRYSKDKTENNSNRSTQIVNNPRTQEMPLDSISIDTQPLSKSFNTETNNELETQIIVSSLSQGISAQKGPVFHSTGQTEEIKTQIINSPEQNALNATFETPVTLSRINFEPILEVPETSSPSKNTMSKPSNSSPIPKEKDTFNIHEREVETNNVFSNDIQNSSNAATRDDIIIAGSSDFNEQKEITDRIYLQLSGKQISDSGSDETERMSPNELDTKKESTIMSEVELTQELPEVEEQQDLQTSPKKLVVEEETLMEIKKSKGNSLQLHDDNKECNSDKQDGTESLDVALIEHESKGQSSELQKNLMQLFPSESQEIIQNRRTIKRRQKDTIEIGEEEENRSTKTSPTKHLKRNSDLDAASIKREPSCSITIQTGETGSGKDSKEQSYVFPEGIRTADNSFLSKDDIIFGNAVWCQYTWNYKFYPGILLEVDTNQDGCWIYFETGRSLTKDEDIYYLDIRIGDAVTFDGNEYVVVGLECRSHDLNIIRCIRGYDTVHLKKKNASGLLGKRTLIKALSSISLDLSEWAKRAKIILEDNEKNKGDAYRYLRHPIRGRKSMTNVLSPKKHTDDEKDINTHTEVYNNEIESSSEKKEIVKKDSRDALAEHAGAPSLLFSSGEIRTGNVFDKCIFVLTSLFENREELRQTIESQGGTVIESGFSTLFNFTHPLAKSLVNKGNTDNIRELALKLAWKPHSLFADCRFACLITKRHLRSLKYLETLALGWPTLHWKFISACIEKKRIVPHLIYQYLLPSGESFRLSLDSPSKGGIIKSNNIFSFYTQFLRGSNLRDQICGVKKMLNDYIVIVWGRSELDSFVKFAFACLSAGRMLTIDLPNIDVDDTEPLLNALDSLVPRIGSELSNRKLKFLIYANENNGKSQMKLLERLRSQISLKFKKFNYIFHTESKEWLIQTIINEDTGFHDDITDNDIYNTISEVR", "partner": "B1 chain"}}}
{"variants_of": "B1", "details": "with lcd1_yeast LCD1, Q04377"}
{"variant": "W700A", "effect of a mutation on the interaction": "disrupting interaction"}
{"variant": "G701A", "effect of a mutation on the interaction": "disrupting interaction"}
{"variants_of": "B1", "details": "with lcd1_yeast LCD1, Q04377", "remark": "another data set of the same source"}
{"variant": "G736A", "effect of a mutation on the interaction": "decreasing interaction"}
{"variant": "Y735A", "effect of a mutation on the interaction": "decreasing interaction"}
{"variants_of": "B1", "details": "with lcd1_yeast LCD1, Q04377", "remark": "another data set of the same source"}
{"variant": "G701A", "effect of a mutation on the interaction": "decreasing interaction"}
{"variants_of": "B2", "details": "with dpb11_yeast DPB11, P47027"}
{"variant": "T474A", "effect of a mutation on the interaction": "disrupting interaction"}
{"variant": "S462A", "effect of a mutation on the interaction": "disrupting interaction"}
{"variants_of": "B2", "details": "with dpb11_yeast DPB11, P47027", "remark": "another data set of the same source"}
{"variant": "T474A", "effect of a mutation on the interaction": "decreasing interaction"}
